{
  "source": "paper PMC8570598",
  "target": "Rat tail collagen-I (polymerized fibrillar collagen type I) (rat) (UniProt P02454)",
  "sequence (P02454 152-1207, chain 1 of 2)": "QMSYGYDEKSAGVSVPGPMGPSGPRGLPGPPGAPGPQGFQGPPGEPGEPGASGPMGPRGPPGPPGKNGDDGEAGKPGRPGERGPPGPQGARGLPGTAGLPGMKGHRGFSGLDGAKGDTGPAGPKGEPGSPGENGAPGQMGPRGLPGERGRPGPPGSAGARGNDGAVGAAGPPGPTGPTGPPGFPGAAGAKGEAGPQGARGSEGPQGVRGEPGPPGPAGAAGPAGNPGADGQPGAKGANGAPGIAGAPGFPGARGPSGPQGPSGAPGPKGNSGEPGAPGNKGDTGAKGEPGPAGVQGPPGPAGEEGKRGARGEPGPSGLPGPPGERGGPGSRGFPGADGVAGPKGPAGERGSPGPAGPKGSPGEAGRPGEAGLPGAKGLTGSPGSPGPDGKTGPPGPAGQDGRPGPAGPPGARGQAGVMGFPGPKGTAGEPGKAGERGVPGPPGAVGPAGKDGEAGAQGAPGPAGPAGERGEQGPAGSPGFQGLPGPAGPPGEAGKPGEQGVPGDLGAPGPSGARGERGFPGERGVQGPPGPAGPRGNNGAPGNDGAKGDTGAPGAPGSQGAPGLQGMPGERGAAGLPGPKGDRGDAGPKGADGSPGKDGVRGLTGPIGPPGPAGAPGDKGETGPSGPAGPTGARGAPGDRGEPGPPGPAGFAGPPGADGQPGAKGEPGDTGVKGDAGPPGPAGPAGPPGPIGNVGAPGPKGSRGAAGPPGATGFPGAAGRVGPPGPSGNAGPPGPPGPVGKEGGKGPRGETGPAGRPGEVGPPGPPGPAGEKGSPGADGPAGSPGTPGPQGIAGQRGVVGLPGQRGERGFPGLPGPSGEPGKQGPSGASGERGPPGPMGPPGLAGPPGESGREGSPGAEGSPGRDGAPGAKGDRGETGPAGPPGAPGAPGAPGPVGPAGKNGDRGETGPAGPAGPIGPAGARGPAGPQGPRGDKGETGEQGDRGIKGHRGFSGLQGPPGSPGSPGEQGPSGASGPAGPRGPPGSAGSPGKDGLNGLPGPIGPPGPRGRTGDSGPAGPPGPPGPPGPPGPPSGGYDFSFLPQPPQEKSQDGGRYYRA",
  "sequence (P02466 86-1125, chain 2 of 2, further chain)": "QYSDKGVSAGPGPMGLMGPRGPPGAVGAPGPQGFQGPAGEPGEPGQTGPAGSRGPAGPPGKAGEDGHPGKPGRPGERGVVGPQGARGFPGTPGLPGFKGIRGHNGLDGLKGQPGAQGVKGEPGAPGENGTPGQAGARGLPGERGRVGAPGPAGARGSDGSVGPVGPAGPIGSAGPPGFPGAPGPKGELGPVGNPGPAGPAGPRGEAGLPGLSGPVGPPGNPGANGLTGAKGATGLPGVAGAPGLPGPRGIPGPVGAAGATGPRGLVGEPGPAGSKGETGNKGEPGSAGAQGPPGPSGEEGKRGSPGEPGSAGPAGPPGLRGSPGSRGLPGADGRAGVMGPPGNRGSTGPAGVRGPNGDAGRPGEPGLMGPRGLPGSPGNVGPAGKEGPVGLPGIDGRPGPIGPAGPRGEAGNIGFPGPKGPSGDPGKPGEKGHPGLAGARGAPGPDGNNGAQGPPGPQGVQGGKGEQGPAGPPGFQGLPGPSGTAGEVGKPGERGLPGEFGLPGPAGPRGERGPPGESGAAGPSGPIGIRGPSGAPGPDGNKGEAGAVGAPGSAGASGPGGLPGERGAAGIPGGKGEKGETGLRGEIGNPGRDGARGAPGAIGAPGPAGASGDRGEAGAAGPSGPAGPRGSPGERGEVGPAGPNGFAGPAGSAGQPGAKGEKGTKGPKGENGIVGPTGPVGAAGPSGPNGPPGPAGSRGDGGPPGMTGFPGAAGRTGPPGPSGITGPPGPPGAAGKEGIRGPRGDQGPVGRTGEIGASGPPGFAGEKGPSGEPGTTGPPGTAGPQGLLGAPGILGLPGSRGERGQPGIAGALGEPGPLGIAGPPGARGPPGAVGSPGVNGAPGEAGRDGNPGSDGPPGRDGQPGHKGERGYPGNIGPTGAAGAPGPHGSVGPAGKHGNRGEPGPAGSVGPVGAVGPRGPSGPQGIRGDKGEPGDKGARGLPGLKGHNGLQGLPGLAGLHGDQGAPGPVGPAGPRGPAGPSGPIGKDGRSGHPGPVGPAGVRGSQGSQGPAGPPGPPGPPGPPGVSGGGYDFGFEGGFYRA",
  "test": "FRAP",
  "data": [
    {"substance": "Alexa488-labeled epidermal growth factor (EGF) (ligand)", "values": [
      {"measurement": "mobile fraction (FRAP, free Alexa488-EGF in the medium)", "result": 50, "unit": "%"}
    ]}
  ]
}
